Experimental data reported in US20250276092A1 (Regeneron, published 2025).

T1: monkey CD40 extracellular domain expressed with a C-terminal myc-myc-hexahistidine tag (monkey)
T1 construct: also called mfCD40-MMH; REGN3097
T1 chain: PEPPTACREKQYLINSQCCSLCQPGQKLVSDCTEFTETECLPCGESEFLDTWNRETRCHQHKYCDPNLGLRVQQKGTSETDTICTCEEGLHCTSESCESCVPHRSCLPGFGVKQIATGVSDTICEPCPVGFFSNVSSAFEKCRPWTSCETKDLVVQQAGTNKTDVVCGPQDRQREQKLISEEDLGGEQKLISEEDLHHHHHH

T2: mouse CD40 extracellular domain expressed with a C-terminal myc-myc-hexahistidine tag (mouse)
T2 construct: also called mCD40-MMH; REGN3098
T2 chain: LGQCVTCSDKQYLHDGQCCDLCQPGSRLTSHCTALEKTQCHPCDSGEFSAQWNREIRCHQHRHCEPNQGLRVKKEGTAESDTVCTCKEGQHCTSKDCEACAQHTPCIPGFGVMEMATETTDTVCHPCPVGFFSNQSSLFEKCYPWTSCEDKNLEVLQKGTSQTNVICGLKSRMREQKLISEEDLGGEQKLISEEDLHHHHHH

B1: 30027P2 (antibody, human IgG4 S228P, kappa, V domains shown)
VH: EVQLVESGGGLVQPGGSLRLSCAASGFTFSSYAMNWVRQAPGKGLEWVSIISGTIGKTYYADSVKGRFTISRDNSKNTLYLQMNSLRGEDTAVYYCAKDTERDITGSPFDYWGQGTLVTVSS
VL: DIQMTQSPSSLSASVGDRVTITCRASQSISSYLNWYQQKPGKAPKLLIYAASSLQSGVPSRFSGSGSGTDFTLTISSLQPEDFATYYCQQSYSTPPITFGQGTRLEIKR
notes: Parental bivalent anti-CD40 mAb; also called H4sH30027P2
B2: 21520P2 (antibody, human IgG4 S228P, kappa, V domains shown)
VH: EVQLVESGGGLVQPGGSLRLSCAASGFTFGSYGMAWVRQAPGKGLEWVSAISGSGDYTNYADSVKRRFTISRDNSKNTLYLQMSSLRAEDTAVYYCAKEKTGTTGYLYSGMDVWGQGTTVTVSS
VL: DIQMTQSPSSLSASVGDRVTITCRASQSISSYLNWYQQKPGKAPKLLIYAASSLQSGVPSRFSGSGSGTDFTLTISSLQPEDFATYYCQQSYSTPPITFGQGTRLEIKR
notes: Parental bivalent anti-CD40 mAb; also called H4sH21520P2
B3: REGN11209 (comparator anti-CD40 antibody with the heavy chain and light chain sequences of iscalimab) (antibody, human IgG1, kappa, N297A, V domains shown)
VH: QVQLVESGGGVVQPGRSLRLSCAASGFTFSSYGMHWVRQAPGKGLEWVAVISYEESNRYHADSVKGRFTISRDNSKITLYLQMNSLRTEDTAVYYCARDGGIAAPGPDYWGQGTLVTVSS
VL: DIVMTQSPLSLTVTPGEPASISCRSSQSLLYSNGYNYLDWYLQKPGQSPQVLISLGSNRASGVPDRFSGSGSGTDFTLKISRVEAEDVGVYYCMQARQTPFTFGPGTKVDIRR
notes: also called COMP11209; CFZ533
B4: 21519P2 (antibody, human IgG4 S228P, kappa, V domains shown)
VH: QLQLQESGPGLVRPSETLSLTCSVSGASMNTNNYYWGWIRQPPGKGLEWIGSGYYNGNTYYNPSLKSRVTISVDTSKNQFSLKLNSVTAADTAVYYCARQTPPRIIGSPNIWGQGTMVTVSS
VL: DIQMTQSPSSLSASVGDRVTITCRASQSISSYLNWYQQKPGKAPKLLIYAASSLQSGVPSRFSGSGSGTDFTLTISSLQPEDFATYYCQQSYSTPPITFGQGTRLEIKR
notes: Parental bivalent anti-CD40 mAb; also called H4sH21519P2

How the values were obtained:
[1] = molecular target: T1, monkey CD40 extracellular domain …; assay: SPR 25C, captured mAb
Protocol: (§1) The equilibrium dissociation constants (KD) for anti-CD40 bivalent and bispecific monoclonal antibodies (mAbs) were determined using a real-time surface plasmon resonance (SPR)-based Biacore 4000 biosensor. All binding studies were performed in 10 mM HEPES, 150 mM NaCl, 3 mM EDTA, and 0.05% v/v surfactant Tween-20, pH 7.4 (HBS-ET) running buffer at 25° C. and 37° C. The Biacore CM5 sensor surface was first derivatized by amine coupling with a monoclonal mouse anti-human Fc antibody (REGN2567) to capture anti-CD40 bivalent parental and anti-CD40×CD40 bispecific antibodies. Different concentrations of CD40 reagents, human CD40 extracellular domain expressed with a C-terminal myc-myc-hexahistidine tag (“hCD40-MMH”; REGN3094; SEQ ID NO: 53), monkey CD40 extracellular domain expressed with a C-terminal myc-myc-hexahistidine tag (“mfCD40-MMH”; REGN3097; SEQ ID NO: 54), and mouse CD40 extracellular domain expressed with a C-terminal myc-myc-hexahistidine tag (“mCD40-MMH”; REGN3098; SEQ ID NO: 55), at concentrations ranging from 3.7 nM to 100 nM or 3.3 nM to 90 nM in a series of 3-fold dilutions prepared in HBS-ET running buffer were injected at a flow rate of […] for 4 minutes or […] for 5 minutes. The dissociation of different CD40 reagents bound to anti-CD40 bivalent parental and anti-CD40×CD40 bispecific antibodies was monitored for 10 minutes in HBS-ET running buffer. At the end of each cycle, the anti-CD40 bivalent parental and anti-CD40×CD40 bispecific antibodies capture surface was regenerated using a 12 sec injection of 20 mM H₃PO₄.
(§2) The association rate (ka) and dissociation rate (kd) were determined by fitting the real-time binding sensorgrams to a 1:1 binding model with mass transport limitation using Scrubber 2.0c curve-fitting software. Binding dissociation equilibrium constant (KD) and dissociative half-life (t½) were calculated from the kinetic rates as: KD (M)=kd/kₐ, and t_{1/2} (min)=[ln(2)/(60*kd)].

[2] = molecular target: T2, mouse CD40 extracellular domain …; assay: SPR 25C, captured mAb
Protocol: as §1, §2

[3] = molecular target: T3, human CD40 extracellular domain expressed with a C-terminal myc-myc-hexahistidine tag (human); assay: SPR 25C, captured mAb
T3 construct: also called hCD40-MMH; hCD40-mmH
Protocol: as §1, §2

[4] = molecular target: T2, mouse CD40 extracellular domain …; assay: SPR 37C, captured mAb
Protocol: as §1, §2

[5] = molecular target: T3, human CD40 extracellular domain …; assay: SPR 37C, captured mAb
Protocol: as §1, §2

[6] = molecular target: T4, human CD40 expressed on cells (human, UniProt P25942 21-277); assay: cell-based or functional assay
[7] = molecular target: T4, human CD40 expressed on cells; assay: cell-based or functional assay; remark: listed apart in the source
[8] = molecular target: T4, human CD40 expressed on cells; assay: cell-based or functional assay; remark: listed apart in the source
[9] = molecular target: T3, human CD40 extracellular domain …; assay: ELISA, blocks 40 nM hCD40-mmH binding to coated 9His-hCD40L
Protocol: In the blocking assay, 9His-hCD40L was passively absorbed at a concentration of 5 μg/mL in PBS on a 96-well microtiter plate overnight at 4° C. […] In a separate 96-well microtiter plate, a fixed amount of 40 nM hCD40-mmH was pre-mixed with one of the following antibodies, at concentrations ranging from 977 pM to 1 μM in PBS+0.5% BSA: (1) anti-CD40×CD40 bispecific antibodies (REGN16431, REGN16432, REGN16634, and REGN16335); (2) parental anti-CD40 mAbs (bivalent antibodies comprising 2 fragment antigen-binding [Fab] arms identical to one of anti-CD40 Fab of anti-CD40×CD40 antibodies); (3) anti-CD40×Irrelevant antibodies (bivalent antibodies that incorporate one Fab arm identical to one of anti-CD40 Fab of anti-CD40×CD40 antibodies and another Fab arm specific to an irrelevant antigen); and (4) human IgG4 with Fc mutation isotype control antibodies (REGN7540 and REGN4513). The fixed concentration of hCD40-mmH was selected to be near the concentration (EC₅₀ value) that generated 50% of the maximal binding to the plate-adhered 9His-hCD40L. After one-hour incubation, the antibody-antigen complexes were transferred to the microtiter plate coated with 9His-hCD40L. After one hour incubation at room temperature, the plates were washed, and plate-bound hCD40-mmH protein was detected with horseradish peroxidase (HRP) conjugated goat anti-c-Myc antibody. The plates were then developed using TMB substrate solution (BD Biosciences) according to the manufacturer's recommended procedure and the absorbance at 450 nm (OD₄₅₀) was measured on a SpectraMax i3× plate reader.
Binding data were analyzed using a sigmoidal (four-parameter logistic) dose-response model with GraphPad Prism™ software. […] The percent blocking of tested antibodies at the highest tested concentration ([…]) was calculated based on the formula shown below: […]

[10] = molecular target: T4, human CD40 expressed on cells; assay: cell-based or functional assay; remark: listed apart in the source
[11] = molecular target: T4, human CD40 expressed on cells; assay: cell-based or functional assay; remark: listed apart in the source
[12] = molecular target: T4, human CD40 expressed on cells; assay: cell-based or functional assay; remark: listed apart in the source
[13] = molecular target: T4, human CD40 expressed on cells; assay: cell-based or functional assay; remark: listed apart in the source
[14] = molecular target: T4, human CD40 expressed on cells; assay: cell-based or functional assay; remark: listed apart in the source
[15] = molecular target: T4, human CD40 expressed on cells; assay: cell-based or functional assay; remark: listed apart in the source
[16] = molecular target: T3, human CD40 extracellular domain …; assay: BLI Octet, hCD40-MMH captured on anti-Penta-His tips
Protocol: Binding competition between different anti-CD40 monoclonal antibodies (mAbs) was determined using a real time, label-free bio-layer interferometry (BLI) assay on the Octet HTX biosensor platform (Pall ForteBio Corp.). In addition to parental antibodies 21519P2, 21520P2, and 30027P2, a comparator anti-CD40 antibody (REGN11209) was also tested; this comparator has the heavy chain and light chain sequences of iscalimab (see, U.S. Pat. No. 8,828,396). The entire experiment was performed at 25° C. in 10 mM HEPES buffer containing 150 mM NaCl, 3 mM EDTA, 1 mg/mL BSA, 0.02% NaN₃, and 0.05% v/v Surfactant Tween-20 at pH 7.4 (HBS-EP) with the plate shaking at a speed of 1000 rpm.
To assess the ability of one antibody to compete with another antibody for binding to CD40, around 0.47 nm-0.54 nm of recombinant human CD40 extracellular domain expressed with a C-terminal myc-myc-hexahistidine (hCD40-MMH; SEQ ID NO: 53) was first captured onto anti-Penta-His antibody coated Octet biosensor tips (Fortebio Inc, #18-5122) by submerging the biosensor tips in wells containing 10 μg/mL solution of the hCD40-MMH for 90 seconds. […] The real-time binding response was monitored and the binding response at the end of every step was recorded. […]
Target sequence in this assay (chain, as listed by the source limits assumed): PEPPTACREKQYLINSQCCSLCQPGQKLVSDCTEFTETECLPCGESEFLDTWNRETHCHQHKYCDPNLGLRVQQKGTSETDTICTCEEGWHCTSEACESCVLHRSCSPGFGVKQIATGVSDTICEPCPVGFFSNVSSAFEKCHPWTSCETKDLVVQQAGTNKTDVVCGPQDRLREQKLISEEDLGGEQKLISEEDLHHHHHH

T4 sequence (P25942 21-277): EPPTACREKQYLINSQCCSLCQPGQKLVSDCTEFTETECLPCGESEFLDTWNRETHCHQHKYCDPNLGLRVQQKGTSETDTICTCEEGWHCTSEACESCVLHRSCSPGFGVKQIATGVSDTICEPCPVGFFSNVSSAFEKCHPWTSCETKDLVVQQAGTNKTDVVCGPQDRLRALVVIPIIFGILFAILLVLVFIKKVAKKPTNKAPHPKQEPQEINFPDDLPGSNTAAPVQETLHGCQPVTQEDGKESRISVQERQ

Binder	100 nM Ag Bound (RU) [1]	100 nM Ag Bound (RU) [2]	100 nM Ag Bound (RU) [3]	100 nM Ag Bound (RU) [4]	100 nM Ag Bound (RU) [5]	Max % activation, NFkB-luc Ramos, no ligand [6]	Max % inhibition, NFkB-luc Ramos, 500 pM hCD40L [6]	IC50, NFkB-luc Raji, 900 pM hCD40L [7]	Max % activation, NFkB-luc Raji, no ligand [7]	Max % inhibition, NFkB-luc Raji, 900 pM hCD40L [7]	Max % activation, NFkB-luc THP-1, no ligand [8]	Max % inhibition, NFkB-luc THP-1, 10 nM hCD40L [8]	IC50, NFkB-luc THP-1, 10 nM hCD40L [8]	% Blocking at highest mAb concentration [9]	other results
B1	63.1 RU	0.2 RU	62 RU	0.2 RU	66.5 RU	8%	-130%	8.95e-12 M	9%	67%	2%	-61%	–	–	EC50 in the presence of CD40L (potentiation), NFkB-luc Ramos, 500 pM hCD40L [6]: 8.14e-12 M; EC50 in the presence of CD40L (potentiation), NFkB-luc THP-1, 10 nM hCD40L [8]: 0.00251 nM
B2	10.1 RU	-0.5 RU	76.6 RU	0.2 RU	67.2 RU	49%	63%	7.7e-11 M	25%	81%	1%	97%	0.437 nM	94%	EC50, NFkB-luc Ramos, no ligand [6]: > 10 nM; IC50 (three highest concentrations excluded, hook effect), NFkB-luc Ramos, 500 pM hCD40L [6]: 8.06e-11 M; EC50, NFkB-luc Raji, no ligand [7]: > 100 nM
B3	–	–	–	–	–	–	–	–	–	–	–	–	–	–	% max blockade relative to no mAb, IL-6, B cells, donor 1 [10]: 84.2%; % max blockade relative to no mAb, IL-6, B cells, donor 2 [10]: 91.3%; % max blockade relative to no mAb, IL-6, B cells, donor 3 [10]: 91.3%; % max blockade relative to no mAb, IL-10, B cells, donor 1 [11]: 84.1%; % max blockade relative to no mAb, IL-10, B cells, donor 2 [11]: 91.7%; % max blockade relative to no mAb, IL-10, B cells, donor 3 [11]: 91.4%; % max blockade relative to no mAb, TNFa, B cells, donor 1 [12]: 53.9%; % max blockade relative to no mAb, TNFa, B cells, donor 2 [12]: 71.4%; % max blockade relative to no mAb, TNFa, B cells, donor 3 [12]: 73.9%; % max blockade relative to no mAb, IL-6, assay #2, donor 1 [13]: 88.6%; % max blockade relative to no mAb, IL-6, assay #2, donor 2 [13]: 88.3%; % max blockade relative to no mAb, IL-10, assay #2, donor 1 [14]: 88.1%; % max blockade relative to no mAb, IL-10, assay #2, donor 2 [14]: 90.5%; % max blockade relative to no mAb, TNFa, assay #2, donor 1 [15]: 62%; % max blockade relative to no mAb, TNFa, assay #2, donor 2 [15]: 50.6%; binding result [16]: binds
B4	10.3 RU	0.4 RU	99 RU	1.6 RU	105 RU	13%	88%	6.05e-11 M	15%	92%	5%	99%	0.276 nM	94%	IC50, NFkB-luc Ramos, 500 pM hCD40L [6]: 3.09e-11 M
